# Data: PMC8191757, “m6A RNA methylation of major satellite repeat transcripts facilitates chromatin association and RNA:DNA hybrid formation in mouse heterochromatin”
# T1: NLS-HBD(H1)-eGFP (mouse, UniProt O70338 27-76)
# T1 chain: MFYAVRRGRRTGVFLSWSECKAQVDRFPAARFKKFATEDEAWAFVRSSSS
# B1: MSR SR2 RNA:DNA hybrid, m6A (DNA:RNA)
# RNA: UUUUCCACCUUUUUCAGUUUUCCUCGCCAUAUUUC
# DNA: GAAATATGGCGAGGAAAACTGAAAAAGGTGGAAAA
# modifications: m6A at RNA positions 7, 16, 29, 31
# Target: T1, NLS-HBD(H1)-eGFP
# Experiment: EMSA; comparable to unmodified; EMSA: 20 nM hybrid, 125 nM-0.5 uM protein, 20 mM Tris-HCl pH 8.0, 150 mM NaCl, 5 mM MgCl2, 12.5% glycerol, 0.05% Triton X-100, 1 mM DTT, 1 h at 4 C
# Conditions: protein: recombinant, tags: N-terminal NLS PKKKRKV, 6xHis-MBP cleaved by AcTEV, label: 5'-Cy5 on RNA, blunt
binder,measurement,value
B1,binding result,binds
